The text below walks through data of patent publication US20240190947A1 (BIO TECHNE, published 2024).

The target in the test is T1, SARS-CoV-2 S1 RBD His-tagged protein (SARS-CoV-2, UniProt P0DTC2 319-541).
T1 construct: domain: S1 RBD; also called rSARS-CoV-2 S1 RBD; SARS-CoV2 RBD
Description: direct ELISA, HEK293 transfection medium.

B1: 70009-2 VHH clone (VHH)
VHH: QLQLVESGGGLVQPGGSLRLSCAASTLTLNSYAIGWFRQAPGKEREAVSCTSSSGDMTYYTNSVKGRFTISRDNAKNTVYLQMSRLKPDDTAVYYCAAVLLEYGYVCSHPNEYDYWGQGTQVTVSS
With B1, the binding result is recorded as “binds”.
